Laboratory results: article PMC4840434, “The interactome of Streptococcus pneumoniae and its bacteriophages show highly specific patterns of interactions among bacteria and their phages” (Scientific Reports, 2016)

Experiments:
Experiment in all cases: pull-down; LuMPIS: N-terminally MBP-tagged bait pulled down on amylose beads, N-terminally eGFP-luciferase-tagged prey detected by luciferase activity; both expressed in HEK cells, raw protein extracts; quadruplicates; LIR against MBP without ORF
[1] = target: Dp-1 orf44, Rho-like domain lipoprotein (LuMPIS construct) (phage Dp-1 of S. pneumoniae)
[2] = target: Dp-1 orf34, Hypothetical protein (LuMPIS construct) (phage Dp-1 of S. pneumoniae)
[3] = target: Dp-1 orf9, No similarity (LuMPIS construct) (phage Dp-1 of S. pneumoniae)
[4] = target: Dp-1 orf32, Hypothetical protein (LuMPIS construct) (phage Dp-1 of S. pneumoniae)
[5] = target: Dp-1 orf58, Holin (LuMPIS construct) (phage Dp-1 of S. pneumoniae)
[6] = target: Dp-1 orf31, Hypothetical protein (LuMPIS construct) (phage Dp-1 of S. pneumoniae)
[7] = target: Dp-1 orf48, Hypothetical protein (LuMPIS construct) (phage Dp-1 of S. pneumoniae)
[8] = target: Dp-1 orf14, dUTPase (LuMPIS construct) (phage Dp-1 of S. pneumoniae)
[9] = target: Dp-1 orf4, Queuosine biosynth. protein QueE (LuMPIS construct) (phage Dp-1 of S. pneumoniae)
[10] = target: Cp-1 orfc, Hypothetical protein (LuMPIS construct) (phage Cp-1 of S. pneumoniae)
[11] = target: Cp-1 orf17, Tail protein N (LuMPIS construct) (phage Cp-1 of S. pneumoniae)
[12] = target: Dp-1 orf29, Hypothetical protein (LuMPIS construct) (phage Dp-1 of S. pneumoniae)
[13] = target: Cp-1 orfb, Hypothetical protein (LuMPIS construct) (phage Cp-1 of S. pneumoniae)
[14] = target: Dp-1 orf18, DNA polymerase III, delta’ subunit HolB (LuMPIS construct) (phage Dp-1 of S. pneumoniae)
[15] = target: Cp-1 orf10, Connector protein (LuMPIS construct) (phage Cp-1 of S. pneumoniae)
[16] = target: Cp-1 orf6, Hypothetical protein (LuMPIS construct) (phage Cp-1 of S. pneumoniae)

SP_0446, acetolactate synthase, small subunit (LuMPIS construct) (natural protein)
LIR (luminescence intensity ratio against MBP alone) [1]: 6 | LIR (luminescence intensity ratio against MBP alone) [2]: 12

SP_1504, TPR domain protein (LuMPIS construct) (from UniProt A0A0H2UQR2 1-403) (natural protein)
LIR (luminescence intensity ratio against MBP alone) [3]: 19

SP_1669, MutT/nudix family protein (LuMPIS construct) (from UniProt A0A0H2URA0 1-203) (natural protein)
LIR (luminescence intensity ratio against MBP alone) [4]: 10

SP_1731, conserved hypothetical protein (LuMPIS construct) (from UniProt A0A0H2UR87 1-252) (natural protein)
LIR (luminescence intensity ratio against MBP alone) [5]: 3

SP_2168, putative fucose operon repressor (LuMPIS construct) (from UniProt A0A0H2USI3 1-257) (natural protein)
LIR (luminescence intensity ratio against MBP alone) [3]: 15 | LIR (luminescence intensity ratio against MBP alone) [6]: 5 | LIR (luminescence intensity ratio against MBP alone) [7]: 3

SP_1575, conserved hypothetical protein (LuMPIS construct) (from UniProt A0A0H2UQU9 1-225) (natural protein)
LIR (luminescence intensity ratio against MBP alone) [1]: 14

SP_1395, putative phosphate transport system regulatory protein PhoU (LuMPIS construct) (from UniProt A0A0H2UQU1 1-217) (natural protein)
LIR (luminescence intensity ratio against MBP alone) [3]: 23

SP_1746, conserved hypothetical protein (LuMPIS construct) (from UniProt A0A0H2URF8 1-197) (natural protein)
LIR (luminescence intensity ratio against MBP alone) [7]: 3

SP_2125, conserved hypothetical protein (LuMPIS construct) (from UniProt A0A0H2URY4 1-113) (natural protein)
LIR (luminescence intensity ratio against MBP alone) [8]: 45

SP_2036, PTS system, IIA component (LuMPIS construct) (from UniProt A0A0H2URW0 1-161) (natural protein)
LIR (luminescence intensity ratio against MBP alone) [9]: 454

SP_1153, hypothetical protein (LuMPIS construct) (from UniProt A0A0H2UQ84 1-392) (natural protein)
LIR (luminescence intensity ratio against MBP alone) [6]: 6

SP_1915, hypothetical protein (LuMPIS construct) (from UniProt A0A0H2URK9 1-149) (natural protein)
LIR (luminescence intensity ratio against MBP alone) [4]: 5

SP_1536, conserved hypothetical protein (LuMPIS construct) (from UniProt A0A0H2UQS7 1-249) (natural protein)
LIR (luminescence intensity ratio against MBP alone) [1]: 10

SP_1725, sucrose operon repressor (LuMPIS construct) (natural protein)
LIR (luminescence intensity ratio against MBP alone) [1]: 3

SP_0979, oligoendopeptidase F (LuMPIS construct) (natural protein)
LIR (luminescence intensity ratio against MBP alone) [10]: 3 | LIR (luminescence intensity ratio against MBP alone) [11]: 14

SP_2012, glyceraldehyde 3-phosphate dehydrogenase (LuMPIS construct) (natural protein)
LIR (luminescence intensity ratio against MBP alone) [12]: 3

SP_2157, alcohol dehydrogenase, iron-containing (LuMPIS construct) (from UniProt A0A0H2USH2 1-383) (natural protein)
LIR (luminescence intensity ratio against MBP alone) [1]: 13 | LIR (luminescence intensity ratio against MBP alone) [2]: 35

SP_1213, conserved domain protein (LuMPIS construct) (from UniProt A0A0H2UQB9 1-424) (natural protein)
LIR (luminescence intensity ratio against MBP alone) [13]: 240

SP_1751, putative transporter, CorA family (LuMPIS construct) (from UniProt A0A0H2UR86 1-302) (natural protein)
LIR (luminescence intensity ratio against MBP alone) [5]: 5

B1: SP_1584, GTP-sensing transcriptional pleiotropic repressor CodY (LuMPIS construct) (natural protein)
chain: MAHLLEKTRKITSILKRSEEQLQDELPYNAITRQLADIIHCNACIINSKGRLLGYFMRYKTNTDRVEQFFQTKIFPDDYVQGANMIYETEANLPVEHDMSIFPIESRDDFPDGLTTIAPIHVSGIRLGSLIIWRNDKKFEDEDLVLVEIASTVVGIQLLNFQREEDEKNIRRRTAVTMAVNTLSYSELRAVSAILGELNGNEGKLTASVIADRIGITRSVIVNALRKLESAGIIESRSLGMKGTYLKVLISDIFEEVKKRDY
LIR (luminescence intensity ratio against MBP alone) [14]: 6

B2: SP_1354, ribosomal protein L7/L12 (LuMPIS construct) (natural protein)
chain: MALNIENIIAEIKEASILELNDLVKAIEEEFGVTAAAPVAVAAADAADAGAAKDSFDVELTSAGDKKVGVIKVVREITGLGLKEAKELVDGAPALVKEGVATAEAEEIKAKLEEAGASVTLK
LIR (luminescence intensity ratio against MBP alone) [15]: 12

B3: SP_1540, single-strand binding protein Ssb (LuMPIS construct) (natural protein)
chain: MINNVVLVGRMTRDAELRYTPSNVAVATFTLAVNRTFKSQNGEREADFINVVMWRQQAENLANWAKKGSLIGVTGRIQTRSYDNQQGQRVYVTEVVAENFQMLESRSVREGHTGGAYSAPTANYSAPTNSVPDFSRNENPFGATNPLDISDDDLPF
LIR (luminescence intensity ratio against MBP alone) [4]: 3

B4: SP_1713, transcriptional regulator, NrdR family (LuMPIS construct) (natural protein)
chain: MRCPKCGATKSSVIDSRQAEEGNTIRRRRECDECQHRFTTYERVEERTLVVVKKDGTREQFSRDKIFNGIIRSAQKRPVSSDEINMVVNRIEQKLRGRNENEIQSEDIGSLVMEELAELDEITYVRFASVYRSFKDVSELESLLQQITQSSKKKKER
LIR (luminescence intensity ratio against MBP alone) [16]: 6

B5: SP_1881, glutamate racemase (LuMPIS construct) (natural protein)
chain: MDNRPIGFLDSGVGGLTVVRELMRQLPHEEIVYIGDSARAPYGPRPAEQIREYTWQLVNFLLTKDVKMIVIACNTATAVVWEEIKAQLDIPVLGVILPGASAAIKSSQGGKIGVIGTPMTVQSDIYRQKIHDLDPDLQVESLACPKFAPLVESGALSTSVTKKVVYETLRPLVGKVDSLILGCTHYPLLRPIIQNVMGPKVQLIDSGAECVRDISVLLNYFEINRGRDAGPLHHRFYTTASSQSFAQIGEEWLEKEIHVEHVEL
LIR (luminescence intensity ratio against MBP alone) [15]: 6

B6: SP_0194, conserved hypothetical protein (LuMPIS construct) (natural protein)
chain: MSHDHNHDHEERELITLVDEQGNETLFEILLTIDGKEEFGKNYVLLVPVNAEEDEDGQVEIQAYSFIENEDGTEGELQPIPEDSEDEWNMIEEVFNSFMEE
LIR (luminescence intensity ratio against MBP alone) [4]: 5
